Results published in US6084068, “Elongin A and C functional domains” (Oklahoma Medical Research Foundation, dated 2000).

T1: Elongin BC complex (wild type rat Elongin B and C) (rat, UniProt P62870)
T1 chain 1: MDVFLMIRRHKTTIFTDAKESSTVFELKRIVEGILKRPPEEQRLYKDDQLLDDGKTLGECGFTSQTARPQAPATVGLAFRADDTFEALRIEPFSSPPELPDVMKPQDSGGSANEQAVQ
T1 chain 2: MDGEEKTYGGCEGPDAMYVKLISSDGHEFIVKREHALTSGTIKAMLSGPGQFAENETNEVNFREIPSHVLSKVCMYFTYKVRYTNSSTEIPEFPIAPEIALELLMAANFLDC


Target: T1, Elongin BC complex (wild type rat …)
Assay: refolded with wild type Elongin B and C; TSK SP-NPR HPLC, SDS-PAGE, silver staining

Binder	binding result
Elongin A internal deletion mutant Δ545-548 (other) MAAESALQVVEKLQARLAANPDPKKLLKYLKKLSVLPITVDILVETGVGKTVNSFRKHEQVGNFARDLVAQWKKLVPVERNNEAEDQDFEKSNSRKRPRDVPQQEEEAEGNYQESWQASGSQPYSPEHRQKKHRKLPELERPHKVAHGHERRDERKRCHKVSPPYSSDPESSDYGHVQSPPPSSPHQMYTDLSRSPEMDQEPIVSHPKPGKVHSNTFQDRLGVSHLGEHQGKGAVSQNKPHKSSHKEKRPVDARGDEKSSVMGREKSHKASSKEESRRLLSEDSAKEKLPSSVVKKEKDREGNSLKKKLSPALDVASDNHFKKPKHKDSEKIKSDKNKQSVDSVDSGRGTGDPLPRAKDKVPNNLKAQEGKVRTNSDRKSPGSLPKVEEMDMDDEFEQPTMSFESYLSYDQPRKKKKKVVKTSGTALGEKGLKKKDSKSTSKNLNSAQKLPKANENKSDKLQPAGAEPTRPRKVPTDVLPALPDIPLPAIQTNYRPLPSLELISSFQPKRKAFSSPQEEEEAGFTGRRMNSKMQVYSGSKCAYLTLHQQCIRVLKNNIDSIFEVGGVPYSVLEPVLERCTPDQLYRIEECNHVLIEETDQLWKVHCHRDFKEERPEEYESWREMYLRLQDAREQRLRLLTNNIRSAHANKPKGRQAKMAFVNSVAKPPRDVRRRQEKFGTGGAAVPEKVRIKPAPYTTGSSHVPASNSSSSFHSSPEELAYEGPSTSSAHLAPVASSSVSYDPRKPAVKKIAPMMAKTIKAFKNRFSRR	binds
Elongin A internal deletion mutant Δ586-610 (other) MAAESALQVVEKLQARLAANPDPKKLLKYLKKLSVLPITVDILVETGVGKTVNSFRKHEQVGNFARDLVAQWKKLVPVERNNEAEDQDFEKSNSRKRPRDVPQQEEEAEGNYQESWQASGSQPYSPEHRQKKHRKLPELERPHKVAHGHERRDERKRCHKVSPPYSSDPESSDYGHVQSPPPSSPHQMYTDLSRSPEMDQEPIVSHPKPGKVHSNTFQDRLGVSHLGEHQGKGAVSQNKPHKSSHKEKRPVDARGDEKSSVMGREKSHKASSKEESRRLLSEDSAKEKLPSSVVKKEKDREGNSLKKKLSPALDVASDNHFKKPKHKDSEKIKSDKNKQSVDSVDSGRGTGDPLPRAKDKVPNNLKAQEGKVRTNSDRKSPGSLPKVEEMDMDDEFEQPTMSFESYLSYDQPRKKKKKVVKTSGTALGEKGLKKKDSKSTSKNLNSAQKLPKANENKSDKLQPAGAEPTRPRKVPTDVLPALPDIPLPAIQTNYRPLPSLELISSFQPKRKAFSSPQEEEEAGFTGRRMNSKMQVYSGSKCAYLPKMMTLHQQCIRVLKNNIDSIFEVGGVPYSVLEPVLERCTPHRDFKEERPEEYESWREMYLRLQDAREQRLRLLTNNIRSAHANKPKGRQAKMAFVNSVAKPPRDVRRRQEKFGTGGAAVPEKVRIKPAPYTTGSSHVPASNSSSSFHSSPEELAYEGPSTSSAHLAPVASSSVSYDPRKPAVKKIAPMMAKTIKAFKNRFSRR	binds
Elongin A internal deletion mutant Δ691-730 (other) MAAESALQVVEKLQARLAANPDPKKLLKYLKKLSVLPITVDILVETGVGKTVNSFRKHEQVGNFARDLVAQWKKLVPVERNNEAEDQDFEKSNSRKRPRDVPQQEEEAEGNYQESWQASGSQPYSPEHRQKKHRKLPELERPHKVAHGHERRDERKRCHKVSPPYSSDPESSDYGHVQSPPPSSPHQMYTDLSRSPEMDQEPIVSHPKPGKVHSNTFQDRLGVSHLGEHQGKGAVSQNKPHKSSHKEKRPVDARGDEKSSVMGREKSHKASSKEESRRLLSEDSAKEKLPSSVVKKEKDREGNSLKKKLSPALDVASDNHFKKPKHKDSEKIKSDKNKQSVDSVDSGRGTGDPLPRAKDKVPNNLKAQEGKVRTNSDRKSPGSLPKVEEMDMDDEFEQPTMSFESYLSYDQPRKKKKKVVKTSGTALGEKGLKKKDSKSTSKNLNSAQKLPKANENKSDKLQPAGAEPTRPRKVPTDVLPALPDIPLPAIQTNYRPLPSLELISSFQPKRKAFSSPQEEEEAGFTGRRMNSKMQVYSGSKCAYLPKMMTLHQQCIRVLKNNIDSIFEVGGVPYSVLEPVLERCTPDQLYRIEECNHVLIEETDQLWKVHCHRDFKEERPEEYESWREMYLRLQDAREQRLRLLTNNIRSAHANKPKGRQAKMAFVNSVAKPPRDVRRRQEKFGTGGAAVPSSAHLAPVASSSVSYDPRKPAVKKIAPMMAKTIKAFKNRFSRR	binds
Elongin A internal deletion mutant Δ651-690 (other) MAAESALQVVEKLQARLAANPDPKKLLKYLKKLSVLPITVDILVETGVGKTVNSFRKHEQVGNFARDLVAQWKKLVPVERNNEAEDQDFEKSNSRKRPRDVPQQEEEAEGNYQESWQASGSQPYSPEHRQKKHRKLPELERPHKVAHGHERRDERKRCHKVSPPYSSDPESSDYGHVQSPPPSSPHQMYTDLSRSPEMDQEPIVSHPKPGKVHSNTFQDRLGVSHLGEHQGKGAVSQNKPHKSSHKEKRPVDARGDEKSSVMGREKSHKASSKEESRRLLSEDSAKEKLPSSVVKKEKDREGNSLKKKLSPALDVASDNHFKKPKHKDSEKIKSDKNKQSVDSVDSGRGTGDPLPRAKDKVPNNLKAQEGKVRTNSDRKSPGSLPKVEEMDMDDEFEQPTMSFESYLSYDQPRKKKKKVVKTSGTALGEKGLKKKDSKSTSKNLNSAQKLPKANENKSDKLQPAGAEPTRPRKVPTDVLPALPDIPLPAIQTNYRPLPSLELISSFQPKRKAFSSPQEEEEAGFTGRRMNSKMQVYSGSKCAYLPKMMTLHQQCIRVLKNNIDSIFEVGGVPYSVLEPVLERCTPDQLYRIEECNHVLIEETDQLWKVHCHRDFKEERPEEYESWREMYLRLQDAREQRLRLLTNNIRSAEKVRIKPAPYTTGSSHVPASNSSSSFHSSPEELAYEGPSTSSAHLAPVASSSVSYDPRKPAVKKIAPMMAKTIKAFKNRFSRR	binds

Other lines, results leading:

binding result	Binder
binds	Elongin A internal deletion mutant Δ566-585 (other) MAAESALQVVEKLQARLAANPDPKKLLKYLKKLSVLPITVDILVETGVGKTVNSFRKHEQVGNFARDLVAQWKKLVPVERNNEAEDQDFEKSNSRKRPRDVPQQEEEAEGNYQESWQASGSQPYSPEHRQKKHRKLPELERPHKVAHGHERRDERKRCHKVSPPYSSDPESSDYGHVQSPPPSSPHQMYTDLSRSPEMDQEPIVSHPKPGKVHSNTFQDRLGVSHLGEHQGKGAVSQNKPHKSSHKEKRPVDARGDEKSSVMGREKSHKASSKEESRRLLSEDSAKEKLPSSVVKKEKDREGNSLKKKLSPALDVASDNHFKKPKHKDSEKIKSDKNKQSVDSVDSGRGTGDPLPRAKDKVPNNLKAQEGKVRTNSDRKSPGSLPKVEEMDMDDEFEQPTMSFESYLSYDQPRKKKKKVVKTSGTALGEKGLKKKDSKSTSKNLNSAQKLPKANENKSDKLQPAGAEPTRPRKVPTDVLPALPDIPLPAIQTNYRPLPSLELISSFQPKRKAFSSPQEEEEAGFTGRRMNSKMQVYSGSKCAYLPKMMTLHQQCIRVLKNNIDSIDQLYRIEECNHVLIEETDQLWKVHCHRDFKEERPEEYESWREMYLRLQDAREQRLRLLTNNIRSAHANKPKGRQAKMAFVNSVAKPPRDVRRRQEKFGTGGAAVPEKVRIKPAPYTTGSSHVPASNSSSSFHSSPEELAYEGPSTSSAHLAPVASSSVSYDPRKPAVKKIAPMMAKTIKAFKNRFSRR
binds	Elongin A internal deletion mutant Δ611-650 (other) MAAESALQVVEKLQARLAANPDPKKLLKYLKKLSVLPITVDILVETGVGKTVNSFRKHEQVGNFARDLVAQWKKLVPVERNNEAEDQDFEKSNSRKRPRDVPQQEEEAEGNYQESWQASGSQPYSPEHRQKKHRKLPELERPHKVAHGHERRDERKRCHKVSPPYSSDPESSDYGHVQSPPPSSPHQMYTDLSRSPEMDQEPIVSHPKPGKVHSNTFQDRLGVSHLGEHQGKGAVSQNKPHKSSHKEKRPVDARGDEKSSVMGREKSHKASSKEESRRLLSEDSAKEKLPSSVVKKEKDREGNSLKKKLSPALDVASDNHFKKPKHKDSEKIKSDKNKQSVDSVDSGRGTGDPLPRAKDKVPNNLKAQEGKVRTNSDRKSPGSLPKVEEMDMDDEFEQPTMSFESYLSYDQPRKKKKKVVKTSGTALGEKGLKKKDSKSTSKNLNSAQKLPKANENKSDKLQPAGAEPTRPRKVPTDVLPALPDIPLPAIQTNYRPLPSLELISSFQPKRKAFSSPQEEEEAGFTGRRMNSKMQVYSGSKCAYLPKMMTLHQQCIRVLKNNIDSIFEVGGVPYSVLEPVLERCTPDQLYRIEECNHVLIEETDQLWKVHCHANKPKGRQAKMAFVNSVAKPPRDVRRRQEKFGTGGAAVPEKVRIKPAPYTTGSSHVPASNSSSSFHSSPEELAYEGPSTSSAHLAPVASSSVSYDPRKPAVKKIAPMMAKTIKAFKNRFSRR
binds	Elongin A mutant composed of residues 500 to 700 (other) LELISSFQPKRKAFSSPQEEEEAGFTGRRMNSKMQVYSGSKCAYLPKMMTLHQQCIRVLKNNIDSIFEVGGVPYSVLEPVLERCTPDQLYRIEECNHVLIEETDQLWKVHCHRDFKEERPEEYESWREMYLRLQDAREQRLRLLTNNIRSAHANKPKGRQAKMAFVNSVAKPPRDVRRRQEKFGTGGAAVPEKVRIKPAPY
binds	wild type Elongin A (other) MAAESALQVVEKLQARLAANPDPKKLLKYLKKLSVLPITVDILVETGVGKTVNSFRKHEQVGNFARDLVAQWKKLVPVERNNEAEDQDFEKSNSRKRPRDVPQQEEEAEGNYQESWQASGSQPYSPEHRQKKHRKLPELERPHKVAHGHERRDERKRCHKVSPPYSSDPESSDYGHVQSPPPSSPHQMYTDLSRSPEMDQEPIVSHPKPGKVHSNTFQDRLGVSHLGEHQGKGAVSQNKPHKSSHKEKRPVDARGDEKSSVMGREKSHKASSKEESRRLLSEDSAKEKLPSSVVKKEKDREGNSLKKKLSPALDVASDNHFKKPKHKDSEKIKSDKNKQSVDSVDSGRGTGDPLPRAKDKVPNNLKAQEGKVRTNSDRKSPGSLPKVEEMDMDDEFEQPTMSFESYLSYDQPRKKKKKVVKTSGTALGEKGLKKKDSKSTSKNLNSAQKLPKANENKSDKLQPAGAEPTRPRKVPTDVLPALPDIPLPAIQTNYRPLPSLELISSFQPKRKAFSSPQEEEEAGFTGRRMNSKMQVYSGSKCAYLPKMMTLHQQCIRVLKNNIDSIFEVGGVPYSVLEPVLERCTPDQLYRIEECNHVLIEETDQLWKVHCHRDFKEERPEEYESWREMYLRLQDAREQRLRLLTNNIRSAHANKPKGRQAKMAFVNSVAKPPRDVRRRQEKFGTGGAAVPEKVRIKPAPYTTGSSHVPASNSSSSFHSSPEELAYEGPSTSSAHLAPVASSSVSYDPRKPAVKKIAPMMAKTIKAFKNRFSRR
binds	Elongin A mutant composed of residues 500 to 730 (other) LELISSFQPKRKAFSSPQEEEEAGFTGRRMNSKMQVYSGSKCAYLPKMMTLHQQCIRVLKNNIDSIFEVGGVPYSVLEPVLERCTPDQLYRIEECNHVLIEETDQLWKVHCHRDFKEERPEEYESWREMYLRLQDAREQRLRLLTNNIRSAHANKPKGRQAKMAFVNSVAKPPRDVRRRQEKFGTGGAAVPEKVRIKPAPYTTGSSHVPASNSSSSFHSSPEELAYEGPST
